Results: patent US10501493B2, “Broad spectrum antibiotics” (priority 2011, dated 2019)

What was measured:
[1] = target: Full length His-tagged E. coli SPase (E. coli) (UniProt P00803); test: fluorescence binding titration; compound conc. 0.E+00 (unit inferred)
[2] = target: Full length His-tagged E. coli SPase (E. coli) (UniProt P00803); test: fluorescence binding titration; compound conc. 1.E+03 (unit inferred)
[3] = target: Full length His-tagged S. aureus SPase (S. aureus) (UniProt P0A070); test: fluorescence binding titration; compound conc. 31.25 (unit inferred)
[4] = target: Full length His-tagged S. aureus SPase (S. aureus) (UniProt P0A070); test: fluorescence binding titration; compound conc. 250 (unit inferred)
[5] = target: Full length His-tagged S. aureus SPase (S. aureus) (UniProt P0A070); test: fluorescence binding titration; compound conc. 500 (unit inferred)
[6] = target: Full length His-tagged E. coli SPase (E. coli) (UniProt P00803); test: fluorescence binding titration; compound conc. 3.E+01 (unit inferred)
[7] = target: Full length His-tagged S. aureus SPase (S. aureus) (UniProt P0A070); test: fluorescence binding titration; compound conc. 2000 (unit inferred)
[8] = target: Full length His-tagged S. aureus SPase (S. aureus) (UniProt P0A070); test: fluorescence binding titration; compound conc. 15.625 (unit inferred)
[9] = target: Full length His-tagged E. coli SPase (E. coli) (UniProt P00803); test: fluorescence binding titration; compound conc. 2.E+03 (unit inferred)
[10] = target: Full length His-tagged E. coli SPase (E. coli) (UniProt P00803); test: fluorescence binding titration; compound conc. 4.E+03 (unit inferred)
[11] = target: Full length His-tagged E. coli SPase (E. coli) (UniProt P00803); test: fluorescence binding titration; compound conc. 2.E+01 (unit inferred)
[12] = target: Full length His-tagged S. aureus SPase (S. aureus) (UniProt P0A070); test: fluorescence binding titration; compound conc. 8000 (unit inferred)
[13] = target: Full length His-tagged E. coli SPase (E. coli) (UniProt P00803); test: fluorescence binding titration; compound conc. 3.E+02 (unit inferred)
[14] = target: Full length His-tagged S. aureus SPase (S. aureus) (UniProt P0A070); test: fluorescence binding titration; compound conc. 62.5 (unit inferred)
[15] = target: Full length His-tagged S. aureus SPase (S. aureus) (UniProt P0A070); test: fluorescence binding titration; compound conc. 4000 (unit inferred)
[16] = target: Full length His-tagged E. coli SPase (E. coli) (UniProt P00803); test: fluorescence binding titration; compound conc. 6.E+01 (unit inferred)
[17] = target: Full length His-tagged S. aureus SPase (S. aureus) (UniProt P0A070); test: fluorescence binding titration; compound conc. 1000 (unit inferred)
[18] = target: Full length His-tagged S. aureus SPase (S. aureus) (UniProt P0A070); test: fluorescence binding titration; compound conc. 125 (unit inferred)
[19] = target: Full length His-tagged E. coli SPase (E. coli) (UniProt P00803); test: fluorescence binding titration; compound conc. 8.E+00 (unit inferred)
[20] = target: Full length His-tagged E. coli SPase (E. coli) (UniProt P00803); test: fluorescence binding titration; compound conc. 1.E+02 (unit inferred)
[21] = target: Full length His-tagged E. coli SPase (E. coli) (UniProt P00803); test: fluorescence binding titration; compound conc. 5.E+02 (unit inferred)
[22] = target: T1, decanoyl-LSSPA Y^NO2 A ADK^abzPD (SEQ ID NO: 1)
T1 chain: LSSPAYAADKPD

[23] = target: T2, decanyol-LTPTAY^NO2 A ASKK^abzDD (SEQ ID NO: 2)
T2 chain: LTPTAYAASKKDD

Chain of Full length His-tagged E. coli SPase (E. coli) (P00803 whole entry): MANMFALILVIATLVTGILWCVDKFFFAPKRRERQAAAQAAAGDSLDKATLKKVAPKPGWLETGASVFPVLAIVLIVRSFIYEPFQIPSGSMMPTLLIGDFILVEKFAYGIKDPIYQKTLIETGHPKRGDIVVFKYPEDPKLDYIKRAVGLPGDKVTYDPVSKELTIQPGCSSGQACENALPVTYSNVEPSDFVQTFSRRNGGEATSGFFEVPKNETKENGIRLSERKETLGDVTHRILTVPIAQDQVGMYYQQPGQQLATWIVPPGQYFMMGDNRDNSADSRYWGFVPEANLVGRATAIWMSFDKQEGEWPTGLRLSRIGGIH

## Compound 1 (arylomycin C16) (peptide)
[1]
  % Comp calc: 0%
  % Comp obs: -1%
[2]
  % Comp calc: 96%
  % Comp obs: 98%
[3]
  % Comp calc: 3.8%
  % Comp obs: 4.9%
[4]
  % Comp calc: 25.4%
  % Comp obs: 25.6%
[5]
  % Comp calc: 42%
  % Comp obs: 38.6%
[6]
  % Comp calc: 31%
  % Comp obs: 32%
[7]
  % Comp calc: 77.1%
  % Comp obs: 86.1%
[8]
  % Comp calc: 1.9%
  % Comp obs: 1.7%
[9]
  % Comp calc: 98%
  % Comp obs: 102%
[10]
  % Comp calc: 99%
  % Comp obs: 95%
[11]
  % Comp calc: 17%
  % Comp obs: 16%
[12]
  % Comp calc: 93.6%
  % Comp obs: 87.8%
[13]
  % Comp calc: 85%
  % Comp obs: 81%
[14]
  % Comp calc: 7.4%
  % Comp obs: 6.4%
[15]
  % Comp calc: 87.6%
  % Comp obs: 87.3%
[16]
  % Comp calc: 51%
  % Comp obs: 53%
[17]
  % Comp calc: 61.1%
  % Comp obs: 59.1%
[18]
  % Comp calc: 14%
  % Comp obs: 13.7%
[19]
  % Comp calc: 9%
  % Comp obs: 10%
[20]
  % Comp calc: 71%
  % Comp obs: 69%
[21]
  % Comp calc: 92%
  % Comp obs: 92%

B1: Full length His-tagged S. aureus SPase (protein)
chain: MKKELLEWIISIAVAFVILFIVGKFIVTSYTIKGESMDPTLKDGERVAVNIIGYKTGGLEKGNVVVFHANKNDDYVKRVIGVPGDKVEYKNDTLYVNGKKQDEPYLNYNLKHKQGDYITGTFQVKDLPNANPKSNVIPKGKYLVLGDNREVSKDSRAFGLIDEDQIVGKVSFRFWPFSEFKHNFNPENTKN
[22]
  second order rate constant (Kcat/KM) of substrate cleavage: 10^5 M^-1s^-1
[23]
  second order rate constant (Kcat/KM) of substrate cleavage: 10^5 M^-1s^-1
